Assays:
[1] = biological target: T1, FcγRIIa R (extracellular domain, His tag at the C terminus) (human, UniProt P12318 34-217); experiment: SPR (Biacore), relative binding, control GpH7-B3/GpL16-k0 = 100
T1 construct: extracellular domain; Soluble analyte in Biacore; also called FcgRIIa R type; 2aR
T1 sequence (looked up): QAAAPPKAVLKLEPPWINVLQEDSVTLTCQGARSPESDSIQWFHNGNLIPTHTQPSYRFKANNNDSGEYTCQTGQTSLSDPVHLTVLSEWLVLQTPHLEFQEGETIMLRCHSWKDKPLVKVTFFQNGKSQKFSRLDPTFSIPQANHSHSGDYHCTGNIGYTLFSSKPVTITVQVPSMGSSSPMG
Protocol: (§1) Analysis of interaction between objective antibody and the FcγR was carried out using Biacore T100 (GE Healthcare). HBS-EP+ (GE Healthcare) was used as the running buffer, and the measurement temperature was set to 25° C. Chips produced by immobilizing the antigen peptide by the amine coupling method to a Series S Sencor Chip CM5 (GE Healthcare), or alternatively, chips produced by allowing preliminarily biotinylated antigen peptides to interact with and immobilize onto a Series S Sensor Chip SA (certified) (GE Healthcare) were used. Antibodies of interest were captured onto an antigen peptide-immobilized chip, and allowed to interact to each FcγR diluted with running buffer. To regenerate and repeatedly use the chip, the antibodies captured on the chip were washed off by reacting 10 mM glycine-HCl, pH 1.5.

[2] = biological target: T1, FcγRIIa R (extracellular domain, His …); experiment: SPR (Biacore), relative binding, control GpH7-A5/GpH7-B3/GpL16-k0 = 100
Protocol: as §1

Binder	Ho/Con_2aR [1]	He/Con_2aR [2]
GpH7-A5/GpH7-B3 variant T335_15Y/GpL16-k0 (antibody, human IgG1, kappa, heterodimerized; also called He Ab) heavy 1: not shown heavy 2: not shown light: DIVMTQSPLSLPVTPGEPASISCQASESLVHSNRNTYLHWYLQKPGQSPQLLIYKVSNRFSGVPDRFSGSGSGTDFTLKISRVEAEDVGVYYCSQNTHVPPTFGQGTKVEIERTVAAPSVFIFPPSDEQLKSGTASVVCLLNNFYPREAKVQWKVDNALQSGNSQESVTEQDSKDSTYSLSSTLTLSKADYEKHKVYACEVTHQGLSSPVTKSFNRGEC		111 % of control
GpH7-A5/GpH7-B3 variant I332_15Y/GpL16-k0 (antibody, human IgG1, kappa, heterodimerized; also called He Ab) heavy 1: not shown heavy 2: not shown light: DIVMTQSPLSLPVTPGEPASISCQASESLVHSNRNTYLHWYLQKPGQSPQLLIYKVSNRFSGVPDRFSGSGSGTDFTLKISRVEAEDVGVYYCSQNTHVPPTFGQGTKVEIERTVAAPSVFIFPPSDEQLKSGTASVVCLLNNFYPREAKVQWKVDNALQSGNSQESVTEQDSKDSTYSLSSTLTLSKADYEKHKVYACEVTHQGLSSPVTKSFNRGEC		110 % of control
GpH7-A5/GpH7-B3 variant G236_10E/GpL16-k0 (antibody, human IgG1, kappa, heterodimerized; also called He Ab) heavy 1: not shown heavy 2: not shown light: DIVMTQSPLSLPVTPGEPASISCQASESLVHSNRNTYLHWYLQKPGQSPQLLIYKVSNRFSGVPDRFSGSGSGTDFTLKISRVEAEDVGVYYCSQNTHVPPTFGQGTKVEIERTVAAPSVFIFPPSDEQLKSGTASVVCLLNNFYPREAKVQWKVDNALQSGNSQESVTEQDSKDSTYSLSSTLTLSKADYEKHKVYACEVTHQGLSSPVTKSFNRGEC		125 % of control
GpH7-A5/GpH7-B3 variant H268_13S/GpL16-k0 (antibody, human IgG1, kappa, heterodimerized; also called He Ab) heavy 1: not shown heavy 2: not shown light: DIVMTQSPLSLPVTPGEPASISCQASESLVHSNRNTYLHWYLQKPGQSPQLLIYKVSNRFSGVPDRFSGSGSGTDFTLKISRVEAEDVGVYYCSQNTHVPPTFGQGTKVEIERTVAAPSVFIFPPSDEQLKSGTASVVCLLNNFYPREAKVQWKVDNALQSGNSQESVTEQDSKDSTYSLSSTLTLSKADYEKHKVYACEVTHQGLSSPVTKSFNRGEC		127 % of control
GpH7-A5/GpH7-B3 variant G236_09D/GpL16-k0 (antibody, human IgG1, kappa, heterodimerized; also called He Ab) heavy 1: not shown heavy 2: not shown light: DIVMTQSPLSLPVTPGEPASISCQASESLVHSNRNTYLHWYLQKPGQSPQLLIYKVSNRFSGVPDRFSGSGSGTDFTLKISRVEAEDVGVYYCSQNTHVPPTFGQGTKVEIERTVAAPSVFIFPPSDEQLKSGTASVVCLLNNFYPREAKVQWKVDNALQSGNSQESVTEQDSKDSTYSLSSTLTLSKADYEKHKVYACEVTHQGLSSPVTKSFNRGEC		106 % of control
GpH7-A5/GpH7-B3 variant H268_18N/GpL16-k0 (antibody, human IgG1, kappa, heterodimerized; also called He Ab) heavy 1: not shown heavy 2: not shown light: DIVMTQSPLSLPVTPGEPASISCQASESLVHSNRNTYLHWYLQKPGQSPQLLIYKVSNRFSGVPDRFSGSGSGTDFTLKISRVEAEDVGVYYCSQNTHVPPTFGQGTKVEIERTVAAPSVFIFPPSDEQLKSGTASVVCLLNNFYPREAKVQWKVDNALQSGNSQESVTEQDSKDSTYSLSSTLTLSKADYEKHKVYACEVTHQGLSSPVTKSFNRGEC		128 % of control
GpH7-A5/GpH7-B3 variant I332_09D/GpL16-k0 (antibody, human IgG1, kappa, heterodimerized; also called He Ab) heavy 1: not shown heavy 2: not shown light: DIVMTQSPLSLPVTPGEPASISCQASESLVHSNRNTYLHWYLQKPGQSPQLLIYKVSNRFSGVPDRFSGSGSGTDFTLKISRVEAEDVGVYYCSQNTHVPPTFGQGTKVEIERTVAAPSVFIFPPSDEQLKSGTASVVCLLNNFYPREAKVQWKVDNALQSGNSQESVTEQDSKDSTYSLSSTLTLSKADYEKHKVYACEVTHQGLSSPVTKSFNRGEC		119 % of control
GpH7-A5/GpH7-B3 variant I332_10E/GpL16-k0 (antibody, human IgG1, kappa, heterodimerized; also called He Ab) heavy 1: not shown heavy 2: not shown light: DIVMTQSPLSLPVTPGEPASISCQASESLVHSNRNTYLHWYLQKPGQSPQLLIYKVSNRFSGVPDRFSGSGSGTDFTLKISRVEAEDVGVYYCSQNTHVPPTFGQGTKVEIERTVAAPSVFIFPPSDEQLKSGTASVVCLLNNFYPREAKVQWKVDNALQSGNSQESVTEQDSKDSTYSLSSTLTLSKADYEKHKVYACEVTHQGLSSPVTKSFNRGEC		114 % of control
GpH7-A5/GpH7-B3 variant H268_09D/GpL16-k0 (antibody, human IgG1, kappa, heterodimerized; also called He Ab) heavy 1: not shown heavy 2: not shown light: DIVMTQSPLSLPVTPGEPASISCQASESLVHSNRNTYLHWYLQKPGQSPQLLIYKVSNRFSGVPDRFSGSGSGTDFTLKISRVEAEDVGVYYCSQNTHVPPTFGQGTKVEIERTVAAPSVFIFPPSDEQLKSGTASVVCLLNNFYPREAKVQWKVDNALQSGNSQESVTEQDSKDSTYSLSSTLTLSKADYEKHKVYACEVTHQGLSSPVTKSFNRGEC		149 % of control
GpH7-A5/GpH7-B3 variant K326_06M/GpL16-k0 (antibody, human IgG1, kappa, heterodimerized; also called He Ab) heavy 1: not shown heavy 2: not shown light: DIVMTQSPLSLPVTPGEPASISCQASESLVHSNRNTYLHWYLQKPGQSPQLLIYKVSNRFSGVPDRFSGSGSGTDFTLKISRVEAEDVGVYYCSQNTHVPPTFGQGTKVEIERTVAAPSVFIFPPSDEQLKSGTASVVCLLNNFYPREAKVQWKVDNALQSGNSQESVTEQDSKDSTYSLSSTLTLSKADYEKHKVYACEVTHQGLSSPVTKSFNRGEC		138 % of control
GpH7-A5/GpH7-B3 variant I332_04F/GpL16-k0 (antibody, human IgG1, kappa, heterodimerized; also called He Ab) heavy 1: not shown heavy 2: not shown light: DIVMTQSPLSLPVTPGEPASISCQASESLVHSNRNTYLHWYLQKPGQSPQLLIYKVSNRFSGVPDRFSGSGSGTDFTLKISRVEAEDVGVYYCSQNTHVPPTFGQGTKVEIERTVAAPSVFIFPPSDEQLKSGTASVVCLLNNFYPREAKVQWKVDNALQSGNSQESVTEQDSKDSTYSLSSTLTLSKADYEKHKVYACEVTHQGLSSPVTKSFNRGEC		105 % of control
GpH7-A5/GpH7-B3 variant H268_10E/GpL16-k0 (antibody, human IgG1, kappa, heterodimerized; also called He Ab) heavy 1: not shown heavy 2: not shown light: DIVMTQSPLSLPVTPGEPASISCQASESLVHSNRNTYLHWYLQKPGQSPQLLIYKVSNRFSGVPDRFSGSGSGTDFTLKISRVEAEDVGVYYCSQNTHVPPTFGQGTKVEIERTVAAPSVFIFPPSDEQLKSGTASVVCLLNNFYPREAKVQWKVDNALQSGNSQESVTEQDSKDSTYSLSSTLTLSKADYEKHKVYACEVTHQGLSSPVTKSFNRGEC		148 % of control
GpH7-A5/GpH7-B3 variant K326_09D/GpL16-k0 (antibody, human IgG1, kappa, heterodimerized; also called He Ab) heavy 1: not shown heavy 2: not shown light: DIVMTQSPLSLPVTPGEPASISCQASESLVHSNRNTYLHWYLQKPGQSPQLLIYKVSNRFSGVPDRFSGSGSGTDFTLKISRVEAEDVGVYYCSQNTHVPPTFGQGTKVEIERTVAAPSVFIFPPSDEQLKSGTASVVCLLNNFYPREAKVQWKVDNALQSGNSQESVTEQDSKDSTYSLSSTLTLSKADYEKHKVYACEVTHQGLSSPVTKSFNRGEC		148 % of control

The remaining lines, values ahead:

Ho/Con_2aR [1]	He/Con_2aR [2]	Binder
101 % of control		GpH7-B3 variant T335_20W/GpL16-k0 (antibody, human IgG1, kappa, homodimerized; also called Ho Ab) heavy: not shown light: DIVMTQSPLSLPVTPGEPASISCQASESLVHSNRNTYLHWYLQKPGQSPQLLIYKVSNRFSGVPDRFSGSGSGTDFTLKISRVEAEDVGVYYCSQNTHVPPTFGQGTKVEIERTVAAPSVFIFPPSDEQLKSGTASVVCLLNNFYPREAKVQWKVDNALQSGNSQESVTEQDSKDSTYSLSSTLTLSKADYEKHKVYACEVTHQGLSSPVTKSFNRGEC
107 % of control		GpH7-B3 variant Y296_20W/GpL16-k0 (antibody, human IgG1, kappa, homodimerized; also called Ho Ab) heavy: not shown light: DIVMTQSPLSLPVTPGEPASISCQASESLVHSNRNTYLHWYLQKPGQSPQLLIYKVSNRFSGVPDRFSGSGSGTDFTLKISRVEAEDVGVYYCSQNTHVPPTFGQGTKVEIERTVAAPSVFIFPPSDEQLKSGTASVVCLLNNFYPREAKVQWKVDNALQSGNSQESVTEQDSKDSTYSLSSTLTLSKADYEKHKVYACEVTHQGLSSPVTKSFNRGEC
146 % of control		GpH7-B3 variant V266_06M/GpL16-k0 (antibody, human IgG1, kappa, homodimerized; also called Ho Ab) heavy: not shown light: DIVMTQSPLSLPVTPGEPASISCQASESLVHSNRNTYLHWYLQKPGQSPQLLIYKVSNRFSGVPDRFSGSGSGTDFTLKISRVEAEDVGVYYCSQNTHVPPTFGQGTKVEIERTVAAPSVFIFPPSDEQLKSGTASVVCLLNNFYPREAKVQWKVDNALQSGNSQESVTEQDSKDSTYSLSSTLTLSKADYEKHKVYACEVTHQGLSSPVTKSFNRGEC
109 % of control		GpH7-B3 variant Y300_04F/GpL16-k0 (antibody, human IgG1, kappa, homodimerized; also called Ho Ab) heavy: not shown light: DIVMTQSPLSLPVTPGEPASISCQASESLVHSNRNTYLHWYLQKPGQSPQLLIYKVSNRFSGVPDRFSGSGSGTDFTLKISRVEAEDVGVYYCSQNTHVPPTFGQGTKVEIERTVAAPSVFIFPPSDEQLKSGTASVVCLLNNFYPREAKVQWKVDNALQSGNSQESVTEQDSKDSTYSLSSTLTLSKADYEKHKVYACEVTHQGLSSPVTKSFNRGEC
	148 % of control	GpH7-A5/GpH7-B3 variant K326_10E/GpL16-k0 (antibody, human IgG1, kappa, heterodimerized; also called He Ab) heavy 1: not shown heavy 2: not shown light: DIVMTQSPLSLPVTPGEPASISCQASESLVHSNRNTYLHWYLQKPGQSPQLLIYKVSNRFSGVPDRFSGSGSGTDFTLKISRVEAEDVGVYYCSQNTHVPPTFGQGTKVEIERTVAAPSVFIFPPSDEQLKSGTASVVCLLNNFYPREAKVQWKVDNALQSGNSQESVTEQDSKDSTYSLSSTLTLSKADYEKHKVYACEVTHQGLSSPVTKSFNRGEC
	120 % of control	GpH7-A5/GpH7-B3 variant K326_16H/GpL16-k0 (antibody, human IgG1, kappa, heterodimerized; also called He Ab) heavy 1: not shown heavy 2: not shown light: DIVMTQSPLSLPVTPGEPASISCQASESLVHSNRNTYLHWYLQKPGQSPQLLIYKVSNRFSGVPDRFSGSGSGTDFTLKISRVEAEDVGVYYCSQNTHVPPTFGQGTKVEIERTVAAPSVFIFPPSDEQLKSGTASVVCLLNNFYPREAKVQWKVDNALQSGNSQESVTEQDSKDSTYSLSSTLTLSKADYEKHKVYACEVTHQGLSSPVTKSFNRGEC
	134 % of control	GpH7-A5/GpH7-B3 variant K326_14T/GpL16-k0 (antibody, human IgG1, kappa, heterodimerized; also called He Ab) heavy 1: not shown heavy 2: not shown light: DIVMTQSPLSLPVTPGEPASISCQASESLVHSNRNTYLHWYLQKPGQSPQLLIYKVSNRFSGVPDRFSGSGSGTDFTLKISRVEAEDVGVYYCSQNTHVPPTFGQGTKVEIERTVAAPSVFIFPPSDEQLKSGTASVVCLLNNFYPREAKVQWKVDNALQSGNSQESVTEQDSKDSTYSLSSTLTLSKADYEKHKVYACEVTHQGLSSPVTKSFNRGEC

Reference: patent US20150344570A1 (published 2015)
